Measurements published in PMC4944944, “The Calponin Family Member CHDP-1 Interacts with Rac/CED-10 to Promote Cell Protrusions” (PLoS Genetics, 2016).

Target: T1, Flag-tagged full-length CHDP-1 (C. elegans, UniProt P91027 1-338)
T1 construct: CHDP-1 (C10G11.7), single type III calponin homology domain protein of C. elegans; fragment limits show 338 residues; Cloned into a modified pFLAG-CMV-2 vector; In the self-association co-IP the second copy carried Myc (modified pcDNA3.1/myc-HIS(-) vector) in place of Flag; also called FLAG-CHDP-1; C10G11.7; source: HEK293T, transfected, in lysate
T1 sequence (looked up): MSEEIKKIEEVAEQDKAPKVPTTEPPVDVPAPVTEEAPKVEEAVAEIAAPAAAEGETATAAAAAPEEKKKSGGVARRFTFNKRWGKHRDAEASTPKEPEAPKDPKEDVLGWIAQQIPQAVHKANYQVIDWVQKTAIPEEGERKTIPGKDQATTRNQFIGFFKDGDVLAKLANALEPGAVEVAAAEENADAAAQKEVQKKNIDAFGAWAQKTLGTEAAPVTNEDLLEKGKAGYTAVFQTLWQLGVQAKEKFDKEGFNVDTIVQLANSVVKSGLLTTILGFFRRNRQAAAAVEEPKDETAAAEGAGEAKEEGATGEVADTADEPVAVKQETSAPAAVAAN
Assay: co-IP; Flag-CHDP-1 and Myc-CED-10 expressed in HEK293T cells, affinity purified, mixed together, then co-immunoprecipitated with Flag or Myc antibodies
Settings: both partners purified

B1: Myc-tagged CED-10 (natural protein)
chain: not shown
notes: CED-10, Rac1 homolog (Rho family small GTPase) of C. elegans; cDNA from Dr. Yuji Kohara; Cloned into a modified pcDNA3.1/myc-HIS(-) vector; also called Rac1/CED-10; worm Rac1 homolog; source: HEK293T, transfected, in lysate
binding result: binds
